Assay results published in patent publication US4423037A, “Inhibitors of peptide hormone action” (The General Hospital Corporation, priority 1982, dated 1983).

Test system: parathyroid hormone
Test: In vivo inhibition of PTH-stimulated urinary cyclic AMP excretion in thyroparathyroidectomized vitamin D deficient rats
Conditions: same experiment as FIG. 1
Description: The compound [Tyr-34]bPTH(7-34)amide was administered in vivo as an inhibitor of PTH stimulated biological activities. The effectivenss of the treatment was measured by measuring the urinary phosphate and cyclic AMP, standard procedures well known in endocrinology as valid measure of PTH activity. The dosage of PTH analogues used varied from more than 3.0 μg/Kg/hr to less than 15 mg/Kg/hr, optimally between 0.3 mg/Kg/hr and 1.5 mg/Kg/hr. Single bolus dosages were occassionally utilized as indicated containing the equivalent of many hours of the infusion procedure.
Male weanling Holtzman rats were maintained on a purified vitamin D deficient diet containing 0.44% calcium and 0.30% phosphorous for 7 weeks. At this time, the rats weighed 130-170 g. Thyroparathyroidectomy of the vitamin D deficient rats was preformed under anesthesia with ketamin hydrochloride injected intratraperitoneally. The femoral vein was cannulated with a heparin-treated polyethylene tube, and the blood was collected via the catheter for determination of blood chemistries. When needed both femoral veins were cannulated. A polyethylene catheter was also inserted into the urinary bladder via the ventral approach. […]
FIG. 2 is an experiment identical to that shown in FIG. 1, however, urinary cyclic AMP is now measured instead of urinary phosphate. […]

B1: bovine parathyroid hormone (protein, UniProt P01268 32-115, looked up)
Parathyroid hormone: AVSEIQFMHNLGKHLSSMERVEWLRKKLQDVHNFVALGASIAYRDGSSQRPRKKEDNVLVESHQKSLGEADKADVDVLIKAKPQ
modifications: Parathyroid hormone
notes: native 84-amino acid bovine parathyroid hormone, infused as the agonist
- effect on urine cyclic AMP production, substance administered alone (FIG. 2): marked effect
